Results from patent US20090062198A1.
Ends that are not written are not given here.

Biological target: mammalian voltage-gated Kv1.2 channel (mammalian)

For VSCTGSKDCYAPCRQQTGCPNAKCINKSCKCYGC (not fully specified; ends and bridges not checked) [[Q15]-MTX], the potency on the channel was 0.047 nM.
